The target of data set [1] is L7Ae (UniProt O29494 1-119). As to the kind of experiment: SPR; no signal up to 2 uM RNA; SPR as in ref 9 (L7Ae chip, RNA analyte); resin and plate assays in assay buffer at room temperature; buffer composition, salt and pH not given in the material. The settings on record: protein: recombinant; tags: His tag (pET28b-His-L7Ae-cmyc-His named as the L7Ae expression plasmid); immobilized on SPR chip. (In SPR one partner is held on a chip, and binding of the other changes the refractive index at the surface.)
L7Ae, sequence (O29494 whole entry): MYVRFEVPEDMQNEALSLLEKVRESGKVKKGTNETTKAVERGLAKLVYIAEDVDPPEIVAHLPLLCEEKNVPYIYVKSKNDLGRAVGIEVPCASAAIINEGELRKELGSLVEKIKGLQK

The target in data set [2] is Alexa Fluor 633-labelled L7Ae (UniProt O29494 1-119). As to the kind of experiment: pull-down; fBCD35g resin removes most free L7Ae; SPR as in ref 9 (L7Ae chip, RNA analyte); resin and plate assays in assay buffer at room temperature; buffer composition, salt and pH not given in the material. The settings on record: protein: recombinant; tags: His tag; Alexa Fluor 633 by amine coupling; label: resin-immobilized.
Alexa Fluor 633-labelled L7Ae, sequence (O29494 whole entry): as above

The record followed here is article PMC4363599, “A Purification Method for a Molecular Complex in Which a Scaffold Molecule Is Fully Loaded with Heterogeneous Molecules”.

Turning to GGUUCAGCUGACUCGAAAGGGCGUGAUGCUGAAUC (XNA, 2'-fluoro on all pyrimidines) [BCD35 2'-fPy-RNA], the binding result in data set [1] is “no binding”.

As for GGUUCAGCUGAGGCGAAAGCCGGUGAUGCUGAAUC (XNA, 2'-fluoro on all pyrimidines) [fBCD35g immobilized on resin], the binding result in data set [2] is on record as “binds”.
